Assay results published in publication doi:10.1101/2023.02.03.526778.

Molecular target: His-tagged recombinant human LDLR (extracellular domain, hLDLR-ECD) (human) (UniProt P01130)
Test: SPR

UniProt P01130, sequence (P01130 22-788): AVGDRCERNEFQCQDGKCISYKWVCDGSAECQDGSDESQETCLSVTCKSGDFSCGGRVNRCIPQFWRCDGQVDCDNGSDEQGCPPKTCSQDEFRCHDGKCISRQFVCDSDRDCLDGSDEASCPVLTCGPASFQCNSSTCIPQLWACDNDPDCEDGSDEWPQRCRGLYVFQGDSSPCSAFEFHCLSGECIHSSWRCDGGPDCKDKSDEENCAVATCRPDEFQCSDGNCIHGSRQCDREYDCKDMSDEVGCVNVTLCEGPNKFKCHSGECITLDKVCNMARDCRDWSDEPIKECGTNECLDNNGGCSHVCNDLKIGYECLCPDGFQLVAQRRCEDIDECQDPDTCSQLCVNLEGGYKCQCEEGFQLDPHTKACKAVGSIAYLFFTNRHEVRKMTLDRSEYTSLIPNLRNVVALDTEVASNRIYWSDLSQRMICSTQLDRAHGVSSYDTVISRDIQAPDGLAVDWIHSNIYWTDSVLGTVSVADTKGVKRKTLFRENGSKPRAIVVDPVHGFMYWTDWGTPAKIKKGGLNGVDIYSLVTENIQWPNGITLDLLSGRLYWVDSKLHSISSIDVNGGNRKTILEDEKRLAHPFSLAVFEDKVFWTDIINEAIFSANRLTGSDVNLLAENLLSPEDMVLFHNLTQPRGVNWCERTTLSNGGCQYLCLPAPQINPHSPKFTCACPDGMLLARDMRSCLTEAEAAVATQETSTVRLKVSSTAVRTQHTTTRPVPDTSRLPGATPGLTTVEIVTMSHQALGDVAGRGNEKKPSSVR

Kd: 40.1 nM
Substance: VH4127 peptide (cyclo[(D)-Cys-Met-Thz-Arg-Leu-Arg-Gly-Pen])
